The source of these data is PMC10296906, “GPCR Binding and JNK3 Activation by Arrestin-3 Have Different Structural Requirements” (Cells, 2023).

This assay deals with T1, LgBiT-tagged human M2 muscarinic acetylcholine receptor (human, UniProt P08172 1-466).
T1 construct: M2 muscarinic acetylcholine receptor, human, Gi-coupled; stimulated with 10 µM carbachol; also called M2R; source: HEK293 arrestin-2/3 knockout cells, transfected (pcDNA3), in live cells; not shown: LgBiT (17.6 kDa, with the 4-amino acid linker APAG), C-terminal, kept
T1 sequence (looked up): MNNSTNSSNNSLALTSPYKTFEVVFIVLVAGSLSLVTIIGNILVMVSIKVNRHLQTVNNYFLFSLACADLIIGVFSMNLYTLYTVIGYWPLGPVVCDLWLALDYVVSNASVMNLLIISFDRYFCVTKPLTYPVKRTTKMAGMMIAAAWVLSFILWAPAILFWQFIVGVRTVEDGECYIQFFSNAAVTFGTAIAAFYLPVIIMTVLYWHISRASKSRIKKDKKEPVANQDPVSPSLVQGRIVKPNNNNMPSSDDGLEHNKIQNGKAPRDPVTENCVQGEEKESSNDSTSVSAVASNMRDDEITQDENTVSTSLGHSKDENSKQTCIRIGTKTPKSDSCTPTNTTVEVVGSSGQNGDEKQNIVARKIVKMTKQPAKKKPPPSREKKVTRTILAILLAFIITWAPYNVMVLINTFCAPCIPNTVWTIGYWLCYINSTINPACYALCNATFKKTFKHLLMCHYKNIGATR
Kind of assay: split reporter (BiFC, NanoBiT); NanoBiT complementation in live HEK293 arrestin-2/3 KO cells: SmBiT-arrestin-3 and receptor-LgBiT co-expressed; luminescence read 20 min with nanoGlo substrate, then agonist added (10 µM isoproterenol for β2AR, 10 µM carbachol for M2R) and read 40 min; signal normalized to the basal signal without agonist. Conditions: partners not purified.

B1: SmBiT-tagged WT arrestin-3 (natural protein, UniProt P32120-2 1-409, looked up)
chain: MGEKPGTRVFKKSSPNCKLTVYLGKRDFVDHLDKVDPVDGVVLVDPDYLKDRKVFVTLTCAFRYGREDLDVLGLSFRKDLFIANYQAFPPTPNPPRPPTRLQERLLRKLGQHAHPFFFTIPQNLPCSVTLQPGPEDTGKACGVDFEIRAFCAKSLEEKSHKRNSVRLVIRKVQFAPEKPGPQPSAETTRHFLMSDRSLHLEASLDKELYYHGEPLNVNVHVTNNSTKTVKKIKVSVRQYADICLFSTAQYKCPVAQVEQDDQVSPSSTFCKVYTITPLLSNNREKRGLALDGKLKHEDTNLASSTIVKEGANKEVLGILVSYRVKVKLVVSRGGDVSVELPFVLMHPKPHDHIALPRPQSAAPETDAPVDTNLIEFETNYATDDDIVFEDFARLRLKGLKDEDYDDQFC
notes: also called arr3; WT arr3; source: HEK293 arrestin-2/3 knockout cells, transfected (pcDNA3), in live cells
For B1, the “agonist-induced luminescence, fold over basal” value is around 8 fold.
